Data: patent publication US20160244740A1, “MUTANT CHON[…] I COMPOSITIONS AND METHODS OF THEIR USE” (OHIO STATE INNOVATION FOUNDATION, priority 2013, published 2016)
Like-named read-outs stand apart in the source and are kept apart here.

Tests used:
[1] = in vivo; cited from earlier work
subcutaneous tumors = conditions: with adenovirus; cited from earlier work
[2] = cited from earlier work; for toxicity/hemorrhages/glial reactivity: repeated injections into brains and spinal cords
glioma cells = assay: Effect of Chase ABC treatment of glioma cells in vitro on oHSV infection/replication; format: cell-based
Description: The tumor's extracellular matrix (ECM) can pose a significant barrier for efficient viral spread, thus limiting virotherapy efficacy. Chondroitin sulfate proteoglycans (CSPG) are one of the major components of glioma ECM. Choindroitinase ABC 1 (Chase ABC) is a bacterial enzyme that can depolymerize this ECM scaffold. Chase ABC mediated digestion of glioma CSPG can enhance oHSV dissemination and efficacy. […] This study examines the mechanism and impact of Chase ABC on oncolysis. Reduced virus replication can contribute to limited oncolytic efficacy of oHSV. Several innovative approaches are currently under investigation including transcriptional retargeting of viruses to drive virulence under the control of tumor-specific promoters. rQNestin34.5 is an oHSV that expresses viral ICP34.5 regulated by glioma-specific nestin promoter in an ICP34.5 deleted viral backbone. […] An oHSV expressing the humanized sequence of Chase ABC within the context of rQNestin34.5 can be used. […] The anti-tumor efficacy of the Chase ABC-expressing oHSV in vitro and in vivo, in glioma can be tested. The impact of the Chase ABC-expressing oHSV on tumor immune cell infiltration and responses can also be tested.

[3] = tested on: U87ΔEGFR human glioma spheroids; assay: oHSV spread in organotypic glioma model in presence/absence of Chase ABC; format: cell-based; conditions: 10^4 pfus of rQNestin34.5, presence vs absence of purified Chase ABC, n=3/group
Experimental: Briefly U87delta EGFR glioma cell line spheroids on Organotypic brain slice cultures were treated with or without purified Chase and then infected with OV. […] Gli36ΔEGFR mice were inoculated with 1×10^6 viral particles on six days (shown by arrows), and percent survival (FIG. 15A) and tumor volume were followed over the course of the study. U87ΔEGFR mice were also inoculated with 1×10^6 viral particles on six days (shown by arrows), and percent survival (FIG. 15B) and tumor volume were followed over the course of the study. U87ΔEGFR mice were also inoculated with 3×10^5 viral particles once ten days after cell implantation (shown by arrow), and percent survival (FIG. 15C) was followed over the course of the study.
As a preliminary result, the effect of Chase ABC treatment on spread by the rQNestin34.5 oHSV was tested in an organotypic glioma model. Briefly, U87ΔEGFR human glioma spheroids (made by the hanging drop method), grown on 300-μm organotypic brain slices from 5-7-day-old mice, were infected with 10^4 pfus of rQNestin34.5, in the presence/absence of Chase ABC. Spread of oHSV in the spheres was visualized by fluorescent imaging of oHSV encoded GFP in infected cells (n=3/group).

For collagenase, which intratumoral hemorrhages [1] is on record?
Its intratumoral hemorrhages is “intratumoral hemorrhages occurred in many tumors”.

For hyaluronidase, which “viral spread and therapeutic efficacy” value (subcutaneous tumors) is on record?
Its value is “increased viral spread and therapeutic efficacy”.

B1: Chase ABC: bacterial enzyme, chondroitin-sulfate-ABC endolyase; bacterially produced and purified (Seikagaku Inc) (protein, UniProt P59807 25-1021, looked up)
Chondroitin sulfate ABC …: ATSNPAFDPKNLMQSEIYHFAQNNPLADFSSDKNSILTLSDKRSIMGNQSLLWKWKGGSSFTLHKKLIVPTDKEASKAWGRSSTPVFSFWLYNEKPIDGYLTIDFGEKLISTSEAQAGFKVKLDFTGWRAVGVSLNNDLENREMTLNATNTSSDGTQDSIGRSLGAKVDSIRFKAPSNVSQGEIYIDRIMFSVDDARYQWSDYQVKTRLSEPEIQFHNVKPQLPVTPENLAAIDLIRQRLINEFVGGEKETNLALEENISKLKSDFDALNIHTLANGGTQGRHLITDKQIIIYQPENLNSQDKQLFDNYVILGNYTTLMFNISRAYVLEKDPTQKAQLKQMYLLMTKHLLDQGFVKGSALVTTHHWGYSSRWWYISTLLMSDALKEANLQTQVYDSLLWYSREFKSSFDMKVSADSSDLDYFNTLSRQHLALLLLEPDDQKRINLVNTFSHYITGALTQVPPGGKDGLRPDGTAWRHEGNYPGYSFPAFKNASQLIYLLRDTPFSVGESGWNNLKKAMVSAWIYSNPEVGLPLAGRHPFNSPSLKSVAQGYYWLAMSAKSSPDKTLASIYLAISDKTQNESTAIFGETITPASLPQGFYAFNGGAFGIHRWQDKMVTLKAYNTNVWSSEIYNKDNRYGRYQSHGVAQIVSNGSQLSQGYQQEGWDWNRMQGATTIHLPLKDLDSPKPHTLMQRGERGFSGTSSLEGQYGMMAFDLIYPANLERFDPNFTAKKSVLAADNHLIFIGSNINSSDKNKNVETTLFQHAITPTLNTLWINGQKIENMPYQTTLQQGDWLIDSNGNGYLITQAEKVNVSRQHQVSAENKNRQPTEGNFSSAWIDHSTRPKDASYEYMVFLDATPEKMGEMAQKFRENNGLYQVLRKDKDVHIILDKLSNVTGYAFYQPASIEDKWIKKVNKPAIVMTHRQKDTLIVSAVTPDLNMTRQKAATPVTINVTINGKWQSADKNSEVKYQVSGDNTELTFTSYFGIPQEIKLSPLP
For B1, which “loss of neurons, alterations of their structure, reactions of glial cells” value ([2]; intracerebral injections, immediately or after five months of treatment) is on record?
The value was “did not reveal loss of neurons or alterations of their structure nor reactions of glial cells”.

And the toxicity/hemorrhages/glial reactivity [2]?
The toxicity/hemorrhages/glial reactivity was “have not been associated with deleterious effects”.

What about the toxicity/hemorrhages/glial reactivity ([2]; listed as purified Chase ABC) of the same molecule?
Its toxicity/hemorrhages/glial reactivity is “absence of toxicity/hemorrhages/glial reactivity”.

And the oHSV infection/replication (glioma cells)?
The oHSV infection/replication was “does not negatively affect oHSV infection/replication”.

And the “oHSV spread in spheres (GFP imaging)” value [3]?
Its value is “increase in viral spread”.

What about the “oHSV spread in spheres (GFP imaging)” value ([3]; listed as purified Chase ABC) of the same molecule?
The value was “increased oHSV spread within all three glioma spheroids”.
